Measurements published in paper PMC2756588.

T1: Lsb3, P43603
T1 sequence (P43603 385-451, looked up): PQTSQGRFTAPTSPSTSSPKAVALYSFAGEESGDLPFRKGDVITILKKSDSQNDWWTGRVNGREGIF

T2: Sla1-3, P32790
T2 sequence (P32790 344-424, looked up): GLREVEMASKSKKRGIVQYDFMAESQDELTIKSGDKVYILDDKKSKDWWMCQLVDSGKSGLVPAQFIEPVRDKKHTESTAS

T3: Hse1, P38753
T3 sequence (P38753 208-285, looked up): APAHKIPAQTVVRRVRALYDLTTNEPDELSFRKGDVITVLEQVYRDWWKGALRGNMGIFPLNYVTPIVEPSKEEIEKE

T4: Hof1, Q05080
T4 sequence (Q05080 590-669, looked up): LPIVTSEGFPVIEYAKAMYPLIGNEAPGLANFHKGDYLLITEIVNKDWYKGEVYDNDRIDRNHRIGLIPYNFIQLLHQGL

T5: Pex13, P80667
T5 sequence (P80667 295-386, looked up): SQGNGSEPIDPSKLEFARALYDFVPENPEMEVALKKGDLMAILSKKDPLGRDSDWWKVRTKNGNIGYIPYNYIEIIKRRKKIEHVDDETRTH

T6: Sla1-2, P32790
T6 sequence (P32790 60-140, looked up): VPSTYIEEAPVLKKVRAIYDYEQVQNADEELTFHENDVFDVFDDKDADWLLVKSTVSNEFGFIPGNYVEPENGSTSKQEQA

T7: Lsb4, P32793
T7 sequence (P32793 402-468, looked up): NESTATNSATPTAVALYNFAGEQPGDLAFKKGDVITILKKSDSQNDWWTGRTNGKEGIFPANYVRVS

T8: Bzz1-2, P38822
T8 sequence (P38822 568-633, looked up): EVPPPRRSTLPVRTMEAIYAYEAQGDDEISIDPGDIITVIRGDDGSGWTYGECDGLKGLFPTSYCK

T9: Boi2, P39969
T9 sequence (P39969 32-116, looked up): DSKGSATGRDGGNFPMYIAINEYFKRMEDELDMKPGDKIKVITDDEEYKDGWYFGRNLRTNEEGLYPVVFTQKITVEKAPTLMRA

T10: Fus1, P11710
T10 sequence (P11710 432-512, looked up): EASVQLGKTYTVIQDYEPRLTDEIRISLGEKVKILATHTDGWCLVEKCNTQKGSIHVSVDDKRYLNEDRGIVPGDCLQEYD

T11: Pin3, Q06449
T11 sequence (Q06449 53-122, looked up): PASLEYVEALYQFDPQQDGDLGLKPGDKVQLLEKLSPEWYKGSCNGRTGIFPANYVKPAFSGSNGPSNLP

T12: Nbp2, Q12163
T12 sequence (Q12163 103-180, looked up): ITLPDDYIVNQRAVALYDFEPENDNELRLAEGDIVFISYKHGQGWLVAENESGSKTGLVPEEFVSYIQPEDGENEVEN

T13: Bud14, P27637
T13 sequence (P27637 247-328, looked up): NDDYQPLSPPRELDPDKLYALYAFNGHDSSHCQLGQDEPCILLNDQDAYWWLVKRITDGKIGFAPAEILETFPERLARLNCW

T14: Bbc1, P47068
T14 sequence (P47068 1-78, looked up): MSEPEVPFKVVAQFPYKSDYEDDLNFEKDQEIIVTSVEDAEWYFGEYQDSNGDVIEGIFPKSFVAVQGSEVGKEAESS

T15: Abp1, P15891
T15 sequence (P15891 535-592, looked up): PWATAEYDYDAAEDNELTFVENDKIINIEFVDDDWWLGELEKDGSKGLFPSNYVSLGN

T16: Cdc25, P04821
T16 sequence (P04821 50-136, looked up): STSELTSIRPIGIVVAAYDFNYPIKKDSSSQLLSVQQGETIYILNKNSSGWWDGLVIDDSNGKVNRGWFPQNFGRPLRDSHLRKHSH

T17: Myo5, Q04439
T17 sequence (Q04439 1072-1160, looked up): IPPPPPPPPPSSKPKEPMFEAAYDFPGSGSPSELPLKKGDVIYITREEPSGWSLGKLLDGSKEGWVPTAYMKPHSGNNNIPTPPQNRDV

T18: Bzz1-1, P38822
T18 sequence (P38822 478-572, looked up): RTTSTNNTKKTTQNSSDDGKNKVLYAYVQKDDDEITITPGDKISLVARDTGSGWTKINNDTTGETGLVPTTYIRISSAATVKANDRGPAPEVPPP

T19: Lsb1, P53281
T19 sequence (P53281 45-122, looked up): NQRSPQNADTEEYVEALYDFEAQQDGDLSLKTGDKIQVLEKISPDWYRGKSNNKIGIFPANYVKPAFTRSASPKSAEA

T20: Boi1, P38041
T20 sequence (P38041 1-86, looked up): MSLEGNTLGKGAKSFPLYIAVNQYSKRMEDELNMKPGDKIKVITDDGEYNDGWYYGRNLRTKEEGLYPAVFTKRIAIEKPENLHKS

T21: Cyk3, Q07533
T21 sequence (Q07533 1-83, looked up): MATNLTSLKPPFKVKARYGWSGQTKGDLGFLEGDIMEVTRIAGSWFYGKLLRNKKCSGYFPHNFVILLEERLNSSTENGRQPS


biological target: T1, Lsb3, P43603; test: SPOT array; settings: median of control spots 406

SPOT intensity | Binder
6 | DLFKPLPEPPTELGR
1 | NENKKLPPAPTVFGL
4 | EREKALPPIPFTTTL

biological target: T2, Sla1-3, P32790; test: SPOT array; settings: median of control spots 5475

SPOT intensity | Binder
0 | DLFKPLPEPPTELGR
1 | NENKKLPPAPTVFGL
0 | EREKALPPIPFTTTL

biological target: T3, Hse1, P38753; test: SPOT array; settings: median of control spots 1727

SPOT intensity | Binder
1 | DLFKPLPEPPTELGR
0 | NENKKLPPAPTVFGL
1 | EREKALPPIPFTTTL

biological target: T4, Hof1, Q05080; test: SPOT array; settings: median of control spots 4086

SPOT intensity | Binder
2 | DLFKPLPEPPTELGR
25 | NENKKLPPAPTVFGL
354 | EREKALPPIPFTTTL

biological target: Bem1-2, P29366; test: SPOT array; settings: median of control spots 4347
Sequence (P29366 139-227): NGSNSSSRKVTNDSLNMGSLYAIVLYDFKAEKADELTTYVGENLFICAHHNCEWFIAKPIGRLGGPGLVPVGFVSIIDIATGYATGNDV

SPOT intensity | Binder
0 | DLFKPLPEPPTELGR
0 | NENKKLPPAPTVFGL
0 | EREKALPPIPFTTTL

biological target: T5, Pex13, P80667; test: SPOT array; settings: median of control spots 1341

SPOT intensity | Binder
47 | DLFKPLPEPPTELGR
9 | NENKKLPPAPTVFGL
12 | EREKALPPIPFTTTL

biological target: T6, Sla1-2, P32790; test: SPOT array; settings: median of control spots 712

SPOT intensity | Binder
0 | DLFKPLPEPPTELGR
0 | NENKKLPPAPTVFGL
1 | EREKALPPIPFTTTL

biological target: T7, Lsb4, P32793; test: SPOT array; settings: median of control spots 397

SPOT intensity | Binder
0 | DLFKPLPEPPTELGR
0 | NENKKLPPAPTVFGL
2 | EREKALPPIPFTTTL

biological target: T8, Bzz1-2, P38822; test: SPOT array; settings: median of control spots 4538

SPOT intensity | Binder
0 | DLFKPLPEPPTELGR
0 | NENKKLPPAPTVFGL
0 | EREKALPPIPFTTTL

biological target: T9, Boi2, P39969; test: SPOT array; settings: median of control spots 1161

SPOT intensity | Binder
0 | DLFKPLPEPPTELGR
0 | NENKKLPPAPTVFGL
0 | EREKALPPIPFTTTL

biological target: Sho1, P40073; test: SPOT array; settings: median of control spots 1148
Sequence (P40073 287-367): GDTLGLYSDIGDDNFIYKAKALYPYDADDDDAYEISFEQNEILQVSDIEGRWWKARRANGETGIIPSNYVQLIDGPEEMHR

SPOT intensity | Binder
1320 | DLFKPLPEPPTELGR
927 | NENKKLPPAPTVFGL
1480 | EREKALPPIPFTTTL

biological target: T10, Fus1, P11710; test: SPOT array; settings: median of control spots 1200

SPOT intensity | Binder
0 | DLFKPLPEPPTELGR
0 | NENKKLPPAPTVFGL
0 | EREKALPPIPFTTTL

biological target: T11, Pin3, Q06449; test: SPOT array; settings: median of control spots 2171

SPOT intensity | Binder
0 | DLFKPLPEPPTELGR
0 | NENKKLPPAPTVFGL
2 | EREKALPPIPFTTTL

biological target: T12, Nbp2, Q12163; test: SPOT array; settings: median of control spots 357

SPOT intensity | Binder
0 | DLFKPLPEPPTELGR
0 | NENKKLPPAPTVFGL
0 | EREKALPPIPFTTTL

biological target: T13, Bud14, P27637; test: SPOT array; settings: median of control spots 956

SPOT intensity | Binder
0 | DLFKPLPEPPTELGR
2 | NENKKLPPAPTVFGL
0 | EREKALPPIPFTTTL

biological target: T14, Bbc1, P47068; test: SPOT array; settings: median of control spots 796

SPOT intensity | Binder
0 | DLFKPLPEPPTELGR
0 | NENKKLPPAPTVFGL
0 | EREKALPPIPFTTTL

biological target: GST; test: SPOT array; settings: median of control spots 978

SPOT intensity | Binder
0 | DLFKPLPEPPTELGR
0 | NENKKLPPAPTVFGL
0 | EREKALPPIPFTTTL

biological target: T15, Abp1, P15891; test: SPOT array; settings: median of control spots 935

SPOT intensity | Binder
0 | DLFKPLPEPPTELGR
9 | NENKKLPPAPTVFGL
0 | EREKALPPIPFTTTL

biological target: T16, Cdc25, P04821; test: SPOT array; settings: median of control spots 969

SPOT intensity | Binder
0 | DLFKPLPEPPTELGR
4 | NENKKLPPAPTVFGL
0 | EREKALPPIPFTTTL

biological target: Myo3, P36006; test: SPOT array; settings: median of control spots 468

SPOT intensity | Binder
0 | DLFKPLPEPPTELGR
0 | NENKKLPPAPTVFGL
0 | EREKALPPIPFTTTL

biological target: T17, Myo5, Q04439; test: SPOT array; settings: median of control spots 471

SPOT intensity | Binder
0 | DLFKPLPEPPTELGR
0 | NENKKLPPAPTVFGL
0 | EREKALPPIPFTTTL

biological target: T18, Bzz1-1, P38822; test: SPOT array; settings: median of control spots 4446

SPOT intensity | Binder
0 | DLFKPLPEPPTELGR
3 | NENKKLPPAPTVFGL
0 | EREKALPPIPFTTTL

biological target: T19, Lsb1, P53281; test: SPOT array; settings: median of control spots 388

SPOT intensity | Binder
0 | DLFKPLPEPPTELGR
0 | NENKKLPPAPTVFGL
16 | EREKALPPIPFTTTL

biological target: Bem1-1, P29366; test: SPOT array; settings: median of control spots 4282
Sequence (P29366 55-141): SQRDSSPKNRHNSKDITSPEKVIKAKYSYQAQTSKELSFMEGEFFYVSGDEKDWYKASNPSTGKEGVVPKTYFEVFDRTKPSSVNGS

SPOT intensity | Binder
0 | DLFKPLPEPPTELGR
2 | NENKKLPPAPTVFGL
1 | EREKALPPIPFTTTL

biological target: T20, Boi1, P38041; test: SPOT array; settings: median of control spots 1162

SPOT intensity | Binder
0 | DLFKPLPEPPTELGR
2 | NENKKLPPAPTVFGL
0 | EREKALPPIPFTTTL

biological target: Rvs167, P39743; test: SPOT array; settings: median of control spots 2707
Sequence (P39743 419-482): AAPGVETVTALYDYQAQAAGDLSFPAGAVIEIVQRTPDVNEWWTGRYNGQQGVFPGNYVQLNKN

SPOT intensity | Binder
0 | DLFKPLPEPPTELGR
2 | NENKKLPPAPTVFGL
2 | EREKALPPIPFTTTL

biological target: T21, Cyk3, Q07533; test: SPOT array; settings: median of control spots 1451

SPOT intensity | Binder
0 | DLFKPLPEPPTELGR
1 | NENKKLPPAPTVFGL
0 | EREKALPPIPFTTTL
